We go through one molecule from patent US20200306375A1 (ALETA BIOTHERAPEUTICS, published 2020).

The test has as its target T1, FMC63 CAR-Flag (construct #140).
T1 construct: also called CAR19; CD19 CAR construct
Put plainly: flow cytometry on 293T cells transfected with construct #140; anti-mouse Fc gamma-PE detection. On the procedure: Cells transfected with construct #140 (SEQ ID NO: 317) (2.5×10\hat{ }5 in 50 ul) were incubated with 50 u1 sup or purified (5 ug/ml as final conc.) protein of constructs#151/#152 (SEQ ID NO: 319/ SEQ ID NO: 320) for 30 min at 4° C., spun and washed twice with FACS buffer. This was followed by another incubation with anti-mouse Fc gamma-PE for 30 min at 4° C. Cells were spun and washed as above, and fixed with 1% PFA in PBS. Fixed cells were analyzed on Accuri 6 for CAR expression binding (PE positive).
(In general: A flow cytometer gives signals particle by particle.)

T1 sequence (chain, as listed by the source): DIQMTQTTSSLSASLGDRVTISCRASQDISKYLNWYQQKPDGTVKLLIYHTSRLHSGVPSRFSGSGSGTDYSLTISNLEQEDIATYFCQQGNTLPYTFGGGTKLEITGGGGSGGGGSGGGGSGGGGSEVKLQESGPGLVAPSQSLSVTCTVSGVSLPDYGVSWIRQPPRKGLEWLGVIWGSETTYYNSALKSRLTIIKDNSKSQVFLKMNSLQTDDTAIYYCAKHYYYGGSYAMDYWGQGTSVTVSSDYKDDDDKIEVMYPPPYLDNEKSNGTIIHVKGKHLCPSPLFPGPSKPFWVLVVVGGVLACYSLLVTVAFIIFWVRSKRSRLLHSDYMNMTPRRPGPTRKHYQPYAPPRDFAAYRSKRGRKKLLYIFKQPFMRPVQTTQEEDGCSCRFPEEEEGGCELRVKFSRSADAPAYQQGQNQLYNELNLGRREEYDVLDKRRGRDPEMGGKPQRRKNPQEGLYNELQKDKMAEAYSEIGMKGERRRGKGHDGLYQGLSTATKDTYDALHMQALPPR

B1: anti-FMC63 antibody, 136.20.1 (antibody, mouse IgG2a, kappa, V domains shown)
VH: EVKLVESGGGLVQPGGSLKLSCAASGFDFSRYWMSWVRQAPGKGLEWIGEINLDSSTINYTPSLKDKFIISRDNAKNTLYLQMSKVRSEDTALYYCARRYDAMDYWGQGTSVTVSS
VL: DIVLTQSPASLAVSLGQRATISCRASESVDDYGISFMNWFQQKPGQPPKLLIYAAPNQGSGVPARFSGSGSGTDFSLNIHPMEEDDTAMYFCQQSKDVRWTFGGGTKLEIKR
notes: also called anti-FMC63 (anti-Id) antibody; constructs #151/#152
With B1, the binding result is on record as “binds”.
